In US20040053823:

Columns and labels:
[1] = tested on: phage clone A31 (SEQ ID NO:14)
[2] = tested on: phage clone A54 (SEQ ID NO:4)
[3] = tested on: phage clone A6 (SEQ ID NO:9), MMP-2 substrate
[4] = tested on: phage clone B66 (SEQ ID NO:6)
[5] = tested on: synthesized polypeptide B49 (SEQ ID NO:1)
[6] = tested on: phage clone A13 (SEQ ID NO:12)
[7] = tested on: phage clone B53 (SEQ ID NO:15)
[8] = tested on: phage clone C6 (SEQ ID NO:22)
[9] = tested on: phage clone A10 (SEQ ID NO:26)
[10] = tested on: phage clone A45 (SEQ ID NO:25)
[11] = tested on: synthesized polypeptide A3 (SEQ ID NO:24)
[12] = tested on: variants of three peptides synthesized to contain a Pro at P3
[13] = tested on: synthesized polypeptide B74 (SEQ ID NO:2)
[14] = tested on: phage clone A29 (SEQ ID NO:27)
[15] = tested on: phage clone C9 (SEQ ID NO:10)
[16] = tested on: phage clone A54 (SEQ ID NO:3)
[17] = tested on: phage clone A4 (SEQ ID NO:21)
[18] = tested on: synthesized polypeptide A13 (SEQ ID NO:12)
[19] = tested on: phage clone C5 (SEQ ID NO:18)
[20] = tested on: phage clone B37 (SEQ ID NO:13)
[21] = tested on: phage clone B49 (SEQ ID NO:1)
[22] = tested on: synthesized polypeptide B37 (SEQ ID NO:13)
[23] = tested on: phage clone A21 (SEQ ID NO:20)
[24] = tested on: phage clone C3 (SEQ ID NO:16)
[25] = tested on: phage clone B74 (SEQ ID NO:2)
[26] = tested on: phage clone A3 (SEQ ID NO:24)
[27] = tested on: phage clone B79 (SEQ ID NO:5)
[28] = tested on: phage clone A43 (SEQ ID NO:8)
[29] = tested on: phage clone D3 (SEQ ID NO:23)
[30] = tested on: phage clone B46 (SEQ ID NO:7)
[31] = tested on: phage clone A9 (SEQ ID NO:19)
[32] = tested on: phage clone A21 (SEQ ID NO:17)
[33] = tested on: synthesized polypeptide A34 (SEQ ID NO:11)
[34] = tested on: phage clone A34 (SEQ ID NO:11)
[35] = tested on: synthesized polypeptide A21 (SEQ ID NO:17)
[36] = tested on: synthesized polypeptide C9 (SEQ ID NO:10)
[37] = tested on: mutant peptide A11m2 (AC-SGKIPRTATA-NH2, SEQ ID NO:126)
[38] = tested on: the peptides (MMP-9 substrate peptides of Example III)
[39] = tested on: phage clone A6 (SEQ ID NO:30), MMP-9 substrate
[40] = tested on: phage clone D12 (SEQ ID NO:31)
[41] = tested on: synthesized polypeptide C15 (contains SEQ ID NO:28)
[42] = tested on: phage clone A11 (SEQ ID NO:29)
[43] = tested on: synthesized polypeptide A11 (contains SEQ ID NO:29)
[44] = tested on: phage clone D5 (SEQ ID NO:34)
[45] = tested on: phage clone C15 (SEQ ID NO:28)
[46] = tested on: phage clone D17 (SEQ ID NO:35)
[47] = tested on: synthesized polypeptide A6 (contains SEQ ID NO:30)
[48] = tested on: phage clone D36 (SEQ ID NO:32)
[49] = tested on: phage clone D24 (SEQ ID NO:33)

Sequence of MMP-9 (recombinant catalytic domain, APMA-activated) (chain, as listed by the source): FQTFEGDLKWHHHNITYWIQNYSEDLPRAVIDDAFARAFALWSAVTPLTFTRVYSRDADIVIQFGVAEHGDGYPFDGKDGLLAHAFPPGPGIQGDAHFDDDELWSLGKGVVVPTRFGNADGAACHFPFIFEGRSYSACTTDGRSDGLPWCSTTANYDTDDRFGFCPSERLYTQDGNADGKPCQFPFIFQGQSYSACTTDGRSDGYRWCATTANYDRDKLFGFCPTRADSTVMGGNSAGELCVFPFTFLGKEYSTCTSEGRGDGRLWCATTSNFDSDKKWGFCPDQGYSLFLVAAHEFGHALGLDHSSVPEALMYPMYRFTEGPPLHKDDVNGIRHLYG
Sequence of MMP-2 (recombinant catalytic domain, APMA-activated) (chain, as listed by the source): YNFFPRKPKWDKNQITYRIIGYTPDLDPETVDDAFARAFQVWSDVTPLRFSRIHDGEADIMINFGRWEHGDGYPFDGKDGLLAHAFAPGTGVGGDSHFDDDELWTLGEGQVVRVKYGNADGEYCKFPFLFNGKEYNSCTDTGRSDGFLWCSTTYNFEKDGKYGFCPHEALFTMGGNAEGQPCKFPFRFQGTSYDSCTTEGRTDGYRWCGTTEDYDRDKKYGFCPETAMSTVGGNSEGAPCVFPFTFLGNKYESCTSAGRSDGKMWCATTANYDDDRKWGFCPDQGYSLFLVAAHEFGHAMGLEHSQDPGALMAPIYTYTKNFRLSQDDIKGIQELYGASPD

Substance “MMP-2 (recombinant catalytic domain, APMA-activated)” has a % hydrolysis (substrate phage ELISA) [1] of 100%, a % hydrolysis (substrate phage ELISA) [2] of 72% and a % hydrolysis (substrate phage ELISA) [3] of 30%. It also gave a % hydrolysis (substrate phage ELISA) [4] of 51%, a selectivity ratio: kcat/Km for MMP-2 divided by kcat/Km for MMP-7 [5] of 6 and a selectivity ratio: kcat/Km for MMP-2 divided by kcat/Km for MMP-9 [5] of 14. For the same substance, the selectivity ratio: kcat/Km for MMP-2 divided by kcat/Km for MMP-13 [5] was 13, the % hydrolysis (substrate phage ELISA) [6] was 100% and the % hydrolysis (substrate phage ELISA) [7] was 73%. It also gave a % hydrolysis (substrate phage ELISA) [8] of 19%, a % hydrolysis (substrate phage ELISA) [9] of 80% and a % hydrolysis (substrate phage ELISA) [10] of 100%. It also gave a selectivity ratio: kcat/Km for MMP-2 divided by kcat/Km for MMP-7 [11] of 21, a selectivity ratio: kcat/Km for MMP-2 divided by kcat/Km for MMP-9 [11] of 2 and a selectivity ratio: kcat/Km for MMP-2 divided by kcat/Km for MMP-13 [11] of 14. For the same substance, the “peptide hydrolysis (kcat/Km), compared with MMP-9” value [12] was “the proline-containing peptides remained better substrates for MMP-2 (data not shown)”, the selectivity ratio: kcat/Km for MMP-2 divided by kcat/Km for MMP-7 [13] was 354 and the selectivity ratio: kcat/Km for MMP-2 divided by kcat/Km for MMP-9 [13] was 108. For the same substance, the selectivity ratio: kcat/Km for MMP-2 divided by kcat/Km for MMP-13 [13] was 140, the % hydrolysis (substrate phage ELISA) [14] was 100% and the % hydrolysis (substrate phage ELISA) [15] was 100%. The % hydrolysis (substrate phage ELISA) [16] was 98%, the % hydrolysis (substrate phage ELISA) [17] was 30% and the selectivity ratio: kcat/Km for MMP-2 divided by kcat/Km for MMP-7 [18] was 13. It also gave a selectivity ratio: kcat/Km for MMP-2 divided by kcat/Km for MMP-9 [18] of 15, a selectivity ratio: kcat/Km for MMP-2 divided by kcat/Km for MMP-13 [18] of 28 and a % hydrolysis (substrate phage ELISA) [19] of 60%. For the same substance, the % hydrolysis (substrate phage ELISA) [20] was 97%, the % hydrolysis (substrate phage ELISA) [21] was 100% and the selectivity ratio: kcat/Km for MMP-2 divided by kcat/Km for MMP-7 [22] was 17. For the same substance, the selectivity ratio: kcat/Km for MMP-2 divided by kcat/Km for MMP-9 [22] was 71, the selectivity ratio: kcat/Km for MMP-2 divided by kcat/Km for MMP-13 [22] was 58 and the % hydrolysis (substrate phage ELISA) [23] was 30%. The % hydrolysis (substrate phage ELISA) [24] was 28%, the % hydrolysis (substrate phage ELISA) [25] was 81% and the % hydrolysis (substrate phage ELISA) [26] was 100%. It also gave a % hydrolysis (substrate phage ELISA) [27] of 64%, a % hydrolysis (substrate phage ELISA) [28] of 38% and a % hydrolysis (substrate phage ELISA) [29] of 13%. It also gave a % hydrolysis (substrate phage ELISA) [30] of 48%, a % hydrolysis (substrate phage ELISA) [31] of 50% and a % hydrolysis (substrate phage ELISA) [32] of 30%. It also gave a selectivity ratio: kcat/Km for MMP-2 divided by kcat/Km for MMP-7 [33] of 84, a selectivity ratio: kcat/Km for MMP-2 divided by kcat/Km for MMP-9 [33] of 40 and a selectivity ratio: kcat/Km for MMP-2 divided by kcat/Km for MMP-13 [33] of 24. The % hydrolysis (substrate phage ELISA) [34] was 100%, the selectivity ratio: kcat/Km for MMP-2 divided by kcat/Km for MMP-9 [35] was 8 and the selectivity ratio: kcat/Km for MMP-2 divided by kcat/Km for MMP-7 [36] was 35. For the same substance, the selectivity ratio: kcat/Km for MMP-2 divided by kcat/Km for MMP-9 [36] was 198 and the selectivity ratio: kcat/Km for MMP-2 divided by kcat/Km for MMP-13 [36] was 52.

In the case of “MMP-9 (recombinant catalytic domain, APMA-activated)”, the “fold reduction of kcat/Km relative to peptide A11” value [37] is reported as “reduced kcat/Km ratio nearly 30-fold”, the kcat/Km ratio [37] is reported as “measurable kcat/Km ratio (2,000M^-1s^-1)” and the “Km (Michaelis constant)” value [38] is reported as “Km values were generally in the high micromolar to low millimolar range”. The “kcat (first-order rate constant of substrate peptide turnover)” value [38] was “the kcat values ranged from 9 s^-1 to 703 s^-1”, the “kcat/Km ratio for MMP-9 over that for MMP-7 or MMP-13” value [38] was “The kcat/Km ratios ranged from 2.6 to 47 fold higher for MMP-9 than for either MMP-7 or MMP-13” and the % hydrolysis (substrate phage ELISA) [39] was 100%. The “fold increase of the kcat/Km ratio on inclusion of Pro at P3” value [12] was “increased the kcat/Km ratio for MMP-9 between three and eleven-fold”, the % hydrolysis (substrate phage ELISA) [40] was 100% and the selectivity ratio: kcat/Km for MMP-9 divided by kcat/Km for MMP-7 [41] was 14. For the same substance, the selectivity ratio: kcat/Km for MMP-9 divided by kcat/Km for MMP-13 [41] was 12, the % hydrolysis (substrate phage ELISA) [42] was 100% and the selectivity ratio: kcat/Km for MMP-9 divided by kcat/Km for MMP-7 [43] was 10. The selectivity ratio: kcat/Km for MMP-9 divided by kcat/Km for MMP-13 [43] was 3, the % hydrolysis (substrate phage ELISA) [44] was 60% and the % hydrolysis (substrate phage ELISA) [45] was 100%. It also gave a % hydrolysis (substrate phage ELISA) [46] of 67%, a selectivity ratio: kcat/Km for MMP-9 divided by kcat/Km for MMP-7 [47] of 47 and a selectivity ratio: kcat/Km for MMP-9 divided by kcat/Km for MMP-13 [47] of 5. It also gave a kcat/Km relative to the parent peptide A11 (mutant peptide A11m1) of 2 fold, a % hydrolysis (substrate phage ELISA) [48] of 91% and a % hydrolysis (substrate phage ELISA) [49] of 85%.
